How the values were obtained:
[1] = biological target: GST-Crkl (SH3) (UniProt P46109)
[2] = test system: GST-EEEIYGEFE (SEQ. ID. NO: 1) fusion protein

Sequence of GST-Crkl (SH3) (P46109 120-303): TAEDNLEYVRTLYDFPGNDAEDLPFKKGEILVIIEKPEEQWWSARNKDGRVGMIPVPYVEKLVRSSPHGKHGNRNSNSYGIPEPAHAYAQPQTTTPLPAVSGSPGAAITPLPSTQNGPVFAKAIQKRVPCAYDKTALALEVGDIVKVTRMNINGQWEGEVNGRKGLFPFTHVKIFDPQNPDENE

Substance	Crkl phosphorylation in pure HL60 lysate (Bcr-Abl-) relative to pure K562 lysate (Bcr-Abl+) [1]	Km of phosphorylation, substrate in solution (Lineweaver-Burk) [2]	Km of phosphorylation, surface-immobilized substrate (Lineweaver-Burk) [2]	Vmax of phosphorylation, substrate in solution (Lineweaver-Burk) [2]	Vmax of phosphorylation, surface-immobilized substrate (Lineweaver-Burk) [2]
Bcr-Abl tyrosine kinase in K562 cell lysate	the level of Crkl phosphorylation in the pure HL60 cell lysate is only 3.5% of that observed in the pure K562 cell lysate				
protein-tyrosine kinase p60^c-src (Calbiochem)		Km=2.7±1.0 µM	Km=0.36±0.033 µM	Vmax=8.1±3.1 (arbitrary units)	Vmax=9.7±0.63 (arbitrary units)
